Where “and” joins values, the source holds several entries; their conditions need not be identical. Equal entries are not always repeated. Where two headings read alike, the source gives them in different places.

Assay in all cases: native MS
Assay [1] concerns the target cpTMV-S65-3NY (tobacco mosaic virus).
For assay [2] the target is unchanged. This is another data set of the same source.
For assay [3], the target named is cpTMV without any mutation at the S65 position (tobacco mosaic virus).
Assay [4] has as its target cpTMV-S65C (tobacco mosaic virus).
Assay [5] deals with cpTMV-S65-pAF (tobacco mosaic virus).

Regarding cpTMV-S65-3NY, the monomers per disk (monomers per disk) in assay [1] was 16; in assay [2], 17.

“cpTMV without any mutation at the S65 position” returned a monomers per disk (monomers per disk) in assay [3] of 16.

Regarding cpTMV-S65C, the monomers per disk (monomers per disk) in assay [4] worked out at 16.

Regarding cpTMV-S65-pAF, in assay [5], the monomers per disk (two-disk stack) (monomers per disk) is 16 and 17.

(Values after publication PMC10395586.)
